In publication PMC2965030 one finds koff, kon and Kd data, which are given here for two substances.

The target of test [1] is β2-glycoprotein I (human) (UniProt P02749). Nature of the test: optical biosensor.
In test [2] the target is Glu-plasminogen (Homo sapiens) (UniProt P00747). The following applies: cited from earlier work.
Glu-plasminogen (Homo sapiens), sequence (P00747 20-810): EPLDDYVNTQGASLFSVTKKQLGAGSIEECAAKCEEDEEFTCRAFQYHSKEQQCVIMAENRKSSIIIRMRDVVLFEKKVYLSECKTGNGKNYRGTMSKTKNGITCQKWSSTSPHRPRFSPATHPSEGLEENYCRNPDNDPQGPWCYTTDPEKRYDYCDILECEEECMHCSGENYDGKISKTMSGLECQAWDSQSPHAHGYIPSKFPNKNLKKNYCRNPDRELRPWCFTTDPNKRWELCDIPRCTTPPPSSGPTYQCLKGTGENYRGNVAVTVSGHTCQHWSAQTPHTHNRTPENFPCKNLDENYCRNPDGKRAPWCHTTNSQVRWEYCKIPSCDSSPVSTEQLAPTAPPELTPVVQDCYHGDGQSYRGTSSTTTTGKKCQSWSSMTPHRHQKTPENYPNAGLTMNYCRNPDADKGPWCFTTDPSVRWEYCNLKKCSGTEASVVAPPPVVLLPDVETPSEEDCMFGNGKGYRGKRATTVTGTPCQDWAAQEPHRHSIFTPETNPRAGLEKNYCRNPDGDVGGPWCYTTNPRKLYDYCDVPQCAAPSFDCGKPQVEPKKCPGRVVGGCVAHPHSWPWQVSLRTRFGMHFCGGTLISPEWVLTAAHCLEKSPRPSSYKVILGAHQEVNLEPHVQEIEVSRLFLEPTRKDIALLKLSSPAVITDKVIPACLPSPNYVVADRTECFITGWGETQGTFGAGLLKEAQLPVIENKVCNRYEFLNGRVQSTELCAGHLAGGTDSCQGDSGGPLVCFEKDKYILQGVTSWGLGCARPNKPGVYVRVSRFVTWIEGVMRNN

β2-glycoprotein I (human), sequence (P02749 20-345): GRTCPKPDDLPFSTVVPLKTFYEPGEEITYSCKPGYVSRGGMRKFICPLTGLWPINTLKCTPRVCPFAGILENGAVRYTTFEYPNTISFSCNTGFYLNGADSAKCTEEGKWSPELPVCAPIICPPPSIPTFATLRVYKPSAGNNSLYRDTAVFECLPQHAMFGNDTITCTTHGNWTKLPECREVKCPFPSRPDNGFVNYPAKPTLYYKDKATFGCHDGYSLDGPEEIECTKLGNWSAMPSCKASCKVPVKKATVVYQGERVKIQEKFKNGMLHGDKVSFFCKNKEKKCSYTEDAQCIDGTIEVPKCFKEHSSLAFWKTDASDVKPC
β2-glycoprotein I (nicked), sequence (P02749 20-345): as above

In test [1], “tissue-type plasminogen activator (enzyme)” had a koff of 0.00619 s⁻¹ and a kon of 113000 M⁻¹ s⁻¹. Regarding “β2-glycoprotein I (nicked) (from UniProt P02749)”, the Kd in test [2] was 370 nM.

What is called koff is the rate constant with which the complex falls apart. Read a low koff as slow dissociation. For orientation: kon means a measure of how fast the partners come together. In general, Kd refers to the concentration at which binding is half-saturated.
